Measurements taken from patent US9732120B2, “Self-assembled peptide nanostructures by exploiting conformational change, biosensor using the same and detection method of biomolecules using the same” (INDUSTRY-ACADEMIC COOPERATION FOUNDATION, YONSEI UNIVERSITY, priority 2014, dated 2017).
No end group written: not given here. *: point of attachment. Butanoyl(4-pyren-1-yl) = O=C(CCCc1ccc2ccc3cccc4ccc1c2c34)*

Legend:
Type in all cases: physicochemical
[1] = Fluorescence spectroscopy of the amphiphilic peptide in water or 150 mM KF (pyrene excimer); settings: 0.25-20 μM peptide
Experimental: The amphiphilic peptide prepared in Preparation Example was subjected to fluorescence spectroscopic measurement after dissolving in water or a 150 mM KF solution. Details are as follows.
Fluorescence spectra were measured using the LS55 fluorescence spectrometer (PerkinElmer). Pyrene was excited at 341 nm and the emission spectra were recorded in the range of 360-550 nm. The solid (-) curve indicates the amphiphilic peptide dissolved in 150 mM KF and the dotted ( . . . ) curve indicates the amphiphilic peptide dissolved in water.
Also, emission spectra were measured after dissolving 0.25-20 μM of the amphiphilic peptide prepared in Preparation Example in water (a) or a KF solution (b).

[2] = Circular dichroism (CD) spectroscopy of the amphiphilic peptide depending on ionic strength and pH; settings: for [θ]222/[θ]208 (degree of α-helix stabilization): 4° C., 1 μM peptide
Experimental: Circular dichroism (CD) spectroscopic analysis was performed as follows in order to investigate the dependence of the conformation of the amphiphilic peptide prepared in Preparation Example on ionic strength.
CD spectra were recorded using the Chirascan circular dichroism spectrometer equipped with a Peltier thermostat. The spectra were recorded between 260 nm and 190 nm using a 2-mm path cuvette. 10 scans were averaged. Also, molar ellipticity per amino acid residue was calculated. The peptide concentration was 1 μM unless specified otherwise and the sample solution incubated at least for a day before the measurement.
In the graph, ∘ indicates the peptide dissolved in water, and • indicates the peptide dissolved in 150 mM KF. In Test Example 1, the measurement of the samples was measured at 4° C.

[3] = Atomic force microscopy (AFM) of the amphiphilic peptide
Experimental: The amphiphilic peptide prepared in Preparation Example was subjected to atomic force microscopic (AFM) measurement. Atomic force microscopic scanning was made at 1.2-1.5 V with 0.5 Hz. The result is shown in FIGS. 15a-15b and FIGS. 16a-16b.
FIGS. 15a and 15b show atomic force microscopic (AFM) images of 2.5 μM of the amphiphilic peptide dissolved in water. FIG. 15a is a height image and FIG. 15b is a phase image.
FIGS. 16a and 16b show atomic force microscopic (AFM) images of 1 μM of the amphiphilic peptide dissolved in a 150 mM KF solution. FIG. 16a is a height image and FIG. 16b is a phase image.

Substance: amphiphilic peptide prepared in Preparation Example: hairpin-shaped amphiphilic peptide derived from HIV-1 rev protein (Rev12-64) with a pyrene group bound to the N-terminal via pyrenebutyric acid ({Butanoyl(4-pyren-1-yl)}-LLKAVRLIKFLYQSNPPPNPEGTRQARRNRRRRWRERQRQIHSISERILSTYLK)
- excimer peak of pyrene (self-assembly) ([1]; dissolved in pure water): no excimer peak of pyrene was observed
- excimer peak of pyrene (self-assembly) ([1]; ionic strength 150 mM (KF)): the excimer peak of pyrene was observed
- [θ]222/[θ]208 (degree of α-helix stabilization) ([2]; 150 mM KF (increased ionic strength)): 0.71
- solubility depending on pH ([2]; CD analysis, FIG. 12): solubility decreases gradually as the pH increases
- [θ]222/[θ]208 (degree of α-helix stabilization) ([2]; in water): 0.31
- particle diameter of globular nanostructures ([3]; 1 μM peptide in 150 mM KF, AFM): 20-50 nm
- state of the peptide by AFM ([3]; 2.5 μM peptide in water): exists mostly in monomer form
